# Data reported in article PMC3226476.
# Read-outs that look alike come from different tables or passages of the source.
# Legend:
# Assay in all cases: co-sedimentation
# [1] = biological target: Taxol-stabilized microtubules (polymerized porcine brain tubulin) (porcine (purified from brain)) (UniProt P02550)
# [2] = biological target: Taxol-stabilized microtubules (polymerized porcine brain tubulin) (porcine (purified from brain)) (UniProt P02550); remark: listed apart in the source
# [3] = biological target: INF2-FH1FH2 (human, 469-941) (human) (UniProt Q27J81)
# [4] = biological target: mDia1-FH1FH2C (mouse, amino acids 548-1255) (mouse) (UniProt O08808)
# [5] = biological target: mDia2-FH1FH2C (mouse, 521-1171) (mouse) (UniProt Q9Z207)
Substance,Kd [1] [µM],stoichiometry N (tubulin dimer:formin dimer) [1],also measured
"GST-INF2-Cterm (human CAAX variant, 941-1249) (from UniProt Q27J81 941-1249) (domain or fragment)",> 20,,
GST-mDia1-Cterm (1149-1255) (from UniProt O08808 1149-1255) (domain or fragment),> 20,,
GST-mDia2-Cterm (1009-1171) (from UniProt Q9Z207 1009-1171) (domain or fragment),710,0.6,Kd [2]: 0.71 µM
LatB-stabilized actin monomers (rabbit skeletal muscle actin) (from UniProt P68135 1-377) (natural protein),,,percent of the actin in the pellet [3]: 10%; percent of the actin in the pellet [4]: 10%; percent of the actin in the pellet [5]: 10%
"mDia1-FH1FH2C (mouse, amino acids 548-1255) (from UniProt O08808 548-1255) (domain or fragment)",,3.09,
